Measured values as given in patent US20230174642A1, “AFFINITY-MATURATED ANTI-ASIC1a ANTIBODIES” (SHANGHAITECH UNIVERSITY, priority 2019, published 2023).
Numbering of substitutions follows the chain as printed.

T1: recombinant extracellular domain of hASIC1a (hASIC1a-ECD) (Homo sapiens, UniProt P78348)
T1 construct: recombinant extracellular domain of hASIC1a(hASIC1a-ECD)
T1 sequence (P78348 67-427 limits assumed): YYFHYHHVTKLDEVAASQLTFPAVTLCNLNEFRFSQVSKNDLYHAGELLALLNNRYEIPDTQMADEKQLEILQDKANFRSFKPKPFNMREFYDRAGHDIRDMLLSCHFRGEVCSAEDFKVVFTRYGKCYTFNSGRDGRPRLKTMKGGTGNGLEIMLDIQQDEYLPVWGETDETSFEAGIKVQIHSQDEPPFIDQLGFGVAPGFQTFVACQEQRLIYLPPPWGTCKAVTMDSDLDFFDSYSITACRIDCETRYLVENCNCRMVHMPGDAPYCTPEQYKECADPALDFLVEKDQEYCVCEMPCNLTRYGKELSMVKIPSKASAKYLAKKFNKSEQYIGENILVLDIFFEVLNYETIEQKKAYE

T2: human ASIC1b (hASIC1b-eYFP) (Homo sapiens, UniProt P78348)
T2 construct: expressed in transfected cells; host or cells: CHO-K1 (transient)
T2 sequence (P78348 1-562 isoform P78348-3): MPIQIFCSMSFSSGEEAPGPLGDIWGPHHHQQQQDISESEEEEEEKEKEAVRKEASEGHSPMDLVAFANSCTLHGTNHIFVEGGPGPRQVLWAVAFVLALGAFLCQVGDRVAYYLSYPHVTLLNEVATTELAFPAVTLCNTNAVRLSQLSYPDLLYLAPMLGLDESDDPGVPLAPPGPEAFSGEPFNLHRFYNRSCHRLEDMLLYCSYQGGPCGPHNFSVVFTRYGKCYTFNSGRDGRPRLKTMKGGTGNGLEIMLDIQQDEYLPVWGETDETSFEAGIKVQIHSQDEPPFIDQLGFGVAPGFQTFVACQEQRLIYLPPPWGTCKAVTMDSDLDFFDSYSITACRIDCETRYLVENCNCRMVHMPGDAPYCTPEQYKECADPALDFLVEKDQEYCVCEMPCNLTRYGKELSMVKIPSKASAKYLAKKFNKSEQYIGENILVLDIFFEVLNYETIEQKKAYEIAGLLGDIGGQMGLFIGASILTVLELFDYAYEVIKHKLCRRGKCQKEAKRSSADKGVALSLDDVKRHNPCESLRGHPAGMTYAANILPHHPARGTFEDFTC

T3: human ASIC2a (hASIC2a-eYFP) (Homo sapiens, UniProt Q16515)
T3 construct: expressed in transfected cells; host or cells: CHO-K1 (transient)
T3 sequence (Q16515 1-512): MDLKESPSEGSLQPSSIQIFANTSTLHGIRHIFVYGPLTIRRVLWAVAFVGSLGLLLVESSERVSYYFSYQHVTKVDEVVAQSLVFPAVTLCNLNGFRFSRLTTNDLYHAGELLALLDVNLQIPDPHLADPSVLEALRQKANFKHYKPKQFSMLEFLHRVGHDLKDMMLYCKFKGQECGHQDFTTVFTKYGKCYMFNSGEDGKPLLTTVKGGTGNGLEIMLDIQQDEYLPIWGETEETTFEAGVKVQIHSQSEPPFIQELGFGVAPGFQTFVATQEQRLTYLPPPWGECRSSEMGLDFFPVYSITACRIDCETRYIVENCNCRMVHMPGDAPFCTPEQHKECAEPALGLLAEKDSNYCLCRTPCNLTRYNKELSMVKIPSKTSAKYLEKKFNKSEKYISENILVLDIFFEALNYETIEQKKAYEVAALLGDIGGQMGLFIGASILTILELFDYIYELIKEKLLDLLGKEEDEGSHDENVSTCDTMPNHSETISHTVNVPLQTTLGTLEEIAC

B1: ASC06-01-IgG1: affinity-matured ASC06 derivative, VH-CDR3 DSYFGYSKGD (SEQ ID NO: 11) (antibody, V domains shown)
VH: QVQLQQSGGGLVQPGGSLRLSCAASGFTFSSYAMSWVRQAPGKGLEWVSAISGSGGSTYYADSVKGRFTISRDNSKNTLYLQMNSLRAEDTAVYYCAKDSYFGYSKGDWGQGTLVTVSS
VL: QSALTQPASVSGSPGQSITISCTGTSSDVGAYNYVSWYQQQPGKAPKLMIYGVSNRPSGVSNRFSGSKSGNAASLTISGLQAEDEADYYCSSYTSSSTYVFGTGTKLTVLG
B2: ASC06-04-IgG1: affinity-matured ASC06 derivative, VH-CDR3 DSFYGRAKGV (SEQ ID NO: 17) (antibody, V domains shown)
VH: B1 VH with Y101F, F102Y, Y104R, S105A, D108V
VL: B1 VL
B3: ASC06-IgG1: parental (WT) ASIC1a-specific antagonist antibody; VL SEQ ID NO: 2, VH SEQ ID NO: 7, VH-CDR3 DSFYGYSKGD (antibody, V domains shown)
VH: B1 VH with Y101F, F102Y
VL: B1 VL
modifications: IgG1 constant regions; Amino acid sequence VH of ASC06; Amino acid sequence VL of ASC06
B4: ASC06-03-IgG1: affinity-matured ASC06 derivative, VH-CDR3 DSFYGRAKGS (SEQ ID NO: 15) (antibody, V domains shown)
VH: B1 VH with Y101F, F102Y, Y104R, S105A, D108S
VL: B1 VL
B5: ASC06-02-IgG1: affinity-matured ASC06 derivative, VH-CDR3 DSFFGRAKGS (SEQ ID NO: 13) (antibody, V domains shown)
VH: B1 VH with Y101F, Y104R, S105A, D108S
VL: B1 VL

Target: T1, recombinant extracellular domain of hASIC1a (hASIC1a-ECD)
Assay: Biacore T200 binding affinity measurement
Conditions: Biacore T200, hASIC1a immobilized, antibody as analyte
Experimental: Binding affinities of four affinity-matured antibodies in IgG1 format (ASC06-01-IgG1 through ASC06-04-IgG1) to the recombinant extracellular domain of hASIC1a(hASIC1a-ECD) were measured using the Biacore T200™ (GE Healthcare). The ASC06-IgG1 antibody was used as a positive control. All manipulations were followed by the user guide of manufacturer. Briefly, was hASIC1a was immobilized, and serial dilutions of the indicated antibodies were added as analytes. The analysis of the results were processed in BIA Evaluation Software™.

Row | Molecule | Ka [M⁻¹ s⁻¹]
1 | B1 | 9.7e+06
2 | B2 | 620000
3 | B3 | 4.7e+06
4 | B4 | 680000
5 | B5 | 1.3e+07

Target: T2, human ASIC1b (hASIC1b-eYFP)
Assay: FACS-based binding assay, transiently transfected CHO-K1 cells (isotype selectivity)
Conditions: not given
Excerpt: (§1) To examine the ASIC isotype selectivity of ASC06-IgG1 affinity-matured antibodies, plasmids encoding fusion proteins of eYFP with isoforms of […] were constructed. These plasmids included those encoding human ASIC1b (hASIC1b-eYFP), human ASIC2a (hASIC2a-eYFP), and human ASIC3a (hASIC3a-eYFP). CHO-K1 cells were transiently transfected with these plasmids and used in a FACS-based binding assay disclosed herein. Binding of ASC06-IgG1 to CHO-K1 cells expressing human ASIC1a-eYFP (hASIC1a-eYFP) was used as a positive control (data not shown and FIG. 2), and an isotype control was used as a negative control for binding (NC).

Row | Molecule | binding to the hASIC1b isoform
6 | B1 | no detectable binding
7 | B2 | no detectable binding
8 | B3 | no detectable binding
9 | B4 | no detectable binding
10 | B5 | no detectable binding

Target: T3, human ASIC2a (hASIC2a-eYFP)
Assay: as above
Conditions: not given
Excerpt: as §1

Row | Molecule | binding to the hASIC2a isoform
11 | B1 | no detectable binding
12 | B2 | no detectable binding
13 | B3 | no detectable binding
14 | B4 | no detectable binding
15 | B5 | no detectable binding
